Reference: the DeepSol protein solubility set

Test: soluble on expression in E. coli; label from the status in PepcDB or PDB records

Soluble on expression in E. coli, not soluble:
MGSDKIHHHHHHMRDQADRLREMALNLKQEIEAEIRRDLRYSRVVVISSGKGGVGKSTLALNLSLNLCARGMKIILMDADMGLANLDVMLGLVTKFNIYHIVQQKKSMEEITISGPEGLKIIPGGSGISELANLENTELKRILVELRKLDGAYDYMIIDTGAGISKSVMNFLLAAEDIIVITTPEPTAITDAYSLVKNVAKNSFAGSIYLVVNKVANDSEGILVAEKFKLVCQKFLSCEIKPLGHIVNEPLIGEGIRRQKAFVQIYPRSTATRNINTIVDRLIEASGQKSPGLESKRGGIRYFIEKIAGLVK
MGSDKIHHHHHHMREAMYWKPLGDGRVRCELCPLRCIIDEGKRGSCKIRINKGGKLYTLNYGKVSSIALDPIEKKPLFHFWPGSCALSIGTVGCNMHCKHCQNWEISQADESFPYLQDATPEAIVSLAKHYECESIAYTYNEPTIWYEFVLDTAKLARKEGLNNILVTNGYINEEPFRELAPYIDAMNIDIKAFDDKFYMKIASVPSGEPSRRIAEIAKKEFKIHVELTYLIIPTLNDKEEEIREFARWVVENLGDDTPVHFSRFFPHYKLLNLPPTPIETLEKAYKIAKEEGLKFVYLGNVPGHPGENTYCPSCGKLLIERWGFDIIRYDIVDGKCKYCGEKIPIVGKYQKKKYRGMWW
MGSDKIHHHHHHMRERAAVPPRAVQHSDDVAMVLRMDQPDFIQITDDAVSRDDCAAIVQRMRDSQQLQPGRIGSGVFPDLKHSRDLRISGLADWAAVENRLQQAVFEGLLRYLRQYPQALISPLMLQVTTADGTPHRLVAEDIAQMSDAALSDLARTCLRPGAINLQWYLADQGGYPYWHCELYPRDAGAETLHRHLLWTLYLNEEFEQGETEFLFQQRKARPRTGSLLIAPTAFTHTHRGNRPVGGDKFIATSWILFQSAQALYGGE
MGSDKIHHHHHHMRGTIMDDLNDLYYFVKVVEHGGFTQAGRALGVPKSTLSRRIAALEAQYDVRLLQRTTRHFTVTETGREFYDRCLGVLVEAEAAREVIERKHAEPQGIVSLSCPTALLEYRVSGLVARFMAIHPKVQVHLEATNRRVDLLSEGIDLALRVRFPPLEDSGLVMRVLGDSPQRLVAAPHLLGGRDLPTSPDELAGVPSVDWGPPRHHLWQLVGPQGVEAQLRHHPRFITDDMHALRDAALHGVGIAQLPCMVVEDDLRDGTLVDVLPGWVPKGGVIHAVFPSRRGLLPRVRLLIDFLAAHIQKD
MGSDKIHHHHHHMRHFIYQDEKSHKFRAVEQQGNELHISWGKVGTKGQSQIKSFSDAAAAAKAELKLIAEKVKKGYVEQAKDNSLQPSQTVTGSLKVADLSTIIQEQPSFVAETRAPDKNTDAVLPWLAKDIAVVFPPEVVHTTLSHRRFPGVPVQQADKLPQLRRLACSVSQRDNKTATFDFSACSLEWQNTVAQAISQIDGLKTTQLPSPVMAVLTALEMKCTRYKVREDVMDQIVQEGGLEYATDVIIHLQQIDIEWDYANNVIIILPSGIAPSYLEQYSRFE
MGSDKIHHHHHHMRIFTASLATETNTFSPVPTDRASFEMAFYAAPGKHPETPTLCSSPIVALRKRAAAEGLTVIEGTATWAEPGGLLQRQAFEELRDEILDQLKAAMPVDAVVLGLHGAMVAQGYDDCEGDLLERVRAIVGPGVLVASEFDPHSHLTPKRVQNLNIFASFLEFPHTDFYERGEHVVELALDALKGRTKPVISTFDCRMIAVLPTSKEPMRSFVDRIKALQGKDGILSISVIHGFMAADVPEMGTRILVVTDNDPQAGAALAAALGRELIAMREQTSMAMLDTDQGIDRALAAHAANPSKPAVIADVWDNPGGGVAGDGTYILRRLIERGVNNAGIATIWDPIAVTFCHAAGEGAVIDLRFGGKSGPLGGEPIDARVTVLKVANEGWQSFGPSRVTLGPSAVVRIEDTGIDIILNTNRTQTFEPDIFSNLGIDPMTKNVLVVKSTNHFHAGFAPVAAEIIYVDAPSSYPSNPRTTNYRKLNRAIWPRVEDPW
MGSDKIHHHHHHMRIILYTGKGGVGKTSISAATALQSAKQGLKTLVMSTDPAHSLGDSFGIKLSSEPLEIRENLWAQEINTIYEMEKGWGKLQKYITLLFTSKAADDITTEELTMFPGMEDLISLLRVLDYYKQNTYDVIIIDCAPTGETLAMLSFPDMLGWWMEKLFPIKRKVLKVVRPVAQPLLGVPLPTDDIMDELTNTLEQLGEMRDILSNRDVTSIRIVVNPEKMVIKEAQRSFTYLNLYDYNVDAIMINRVIPNTVIDPYFQAWKDTQKKYKTLIQNSFDPLPIYEAPMFEQEVVGLPMLERVGDALFKEDYCPTEVKFNGRTQYVKKDGDEYIFVLSIPFSNKSELALNQKGDELIIRAGSVKRNITLPKTLTHLSIQGAKFEDDVLNIRFGGVVHA
MGSDKIHHHHHHMRKFKIPNMGALVAFEAAARHESFTHTAKELFLTESAVSRQIATLEASLGVRLFARVKQRVVLTRAGKLYGTQVRRALEALDRDTLSIIAHGSGGGYLELAVLPTFASHWLIPRIKSFYDRTPDVRVNMGSRTDLFSFEDTHFEAAIHYGKPTWPGTSSDYLFGEEVVPICSPALLDGPVERVEDLLAYPLLHSTTRPGAWAQWFETHGVEDIRTMQGVRYELHTMLISAAAAGLGIALVPKFFVEEQLQQLGLVVPCDAATVGDSAYYLVYPTELSHSKPLESFRAWLLEQASAYAAPGRDGEEDDLDAEDDEDVE
MGSDKIHHHHHHMRKFNLTALSVMLALGLTACQPPEAEKAAPAASGEAQTANEGGSVSIAVNDNACEPMELTVPSGQVVFNIKNNSGRKLEWEILKGVMVVDERENIAPGLSDKMTVTLLPGEYEMTCGLLTNPRGKLVVTDSGFKDTANEADLEKLSQPLADYKAYVQGEVKELVAKTKTFTEAVKAGDIEKAKSLFADTRVHYERIEPIAELFSELDPVIDAREDDFKDGAKDAGFTGFHRIEYALWVEKDVSGVKEIAAKLMTDVEALQKEIDALAFPPGKVVGGASELIEEVAGSKISGEEDRYSHTDLSDFQANVDGSKKIVDLFRPLIEAKNKALLEKTDTNFKQVNEILAKYRTKDGFETYDKLGEADRKALQASINALAEDLAQLRGILGLK
MGSDKIHHHHHHMRKMAVQKLPEKDFFAPLKAWKFLVRKPVTIEVPNKIRREASERYRGFHVNDWGKCIGCGTCAKICPTDAITMVEVPDLTQEDGKLPQRPVIDYGRCSFCALCVDICTTGSLKMTREYIHISEDPEDFIFMPTDKGLNAKKGLYEFGKAPLGWVRDENSELLDLERIEMPVEPPEVRIKSFIEIVKGYSREQAMQEAARCVECGVCTYTCPEHMDIPQYIKSVYEDNLEEGLRWLYRTNPLSMVCGRVCTHRCETACSVGVRGEPVAIQWLKRYIVDSIPLERYGEILDIKPERKGKSVGIIGSGPAGLAAAYFLATMGYDVTIYESESKPGGVMRYGIPKYRLPDEALDKDIAFIEALGVKILLNTRVVQDVSFEDVRKRHDVVFLATGFGLGRSTGVPGTDHPDVKQALPLLKMIRDYLRGDGPKPPVPERLVVIGGGNVAMDISRSMARLQFMEYGRVNVQVLSLEGCFEDMPADMEEIEEALEEGIVINPGWGPMEVVIENDRIKGVKFKKCVSVFDGEGRFNPQFDEKEQIFVEADMVVEAIGQAPDYSYLPEEIRSKLEFFRGRIKTNEYNQTSVEWLFAGGDIVHGPDIIHGIADGYAAAKGIDMYLRKEK
MGSDKIHHHHHHMRLAAATGFSFVGLRVIAVTPNERVYDLSPGSPLLAATQQALKETALYVLDTEFLQVNADTTREAWLPALEAAGALGAKTFTIAAGDDNIAPLTDTIGAMVDDARDFGVTPALEPISYRSVHSIPQAAAIARDSGGKVVADTLHMARFGATPEELTDVTDVLGVLQLCDSPLQRPADLDGLVTESRSLRLAPGEGEQNLLTFVNALDSNVPLSVETPNDGEVASRGDAGWINHLYNTTQALLEKIEEAV
MGSDKIHHHHHHMRLHSPSMSELHAFVAAARLGSFTRAADTLCVTQGAISRAIARLEEHFGQPLIQRNAHRLTLTGAGQQLLDAVAGPLAAIEHASAALRAGDRSHHLTLSAVPTLASVWLVPRLPDFHRRHPDIRLDFVPYRRDEDFSGAAPDAALLAGEPGKWPGLQVDYVVGREMVPVCHPDRARQRHAAGRWREPAELMDEPLLYHTTAPANWANWLQAAGVPNAAPKLSSGFDQVSILVQAVRADMGIAVLQRCLLHDELAAGRVVAPFDLPIRLQRGYFLCSPRERRDHHALRCFREWLLETAAQDSGT
MGSDKIHHHHHHMRLLDLYLTLRLALSTAVHTLAGRVKGRSYVPHPRTMLFIEPTSHCNLECSFCTYRLDRHPRLTLDMERFEDYVAQARAMGFADMVLTPINGDVFMDRTILDKLRLLDRLKDGPGIILYTNLIGASAEQLGEILALARLKMFQVSIYGHDFETFRRITGRGQVQFRRLLANLETIADLVAQGVVPQALSICVRTERHYRLEDEASGELHVLLRRLISLGIPVSVQSCLDDWGGLVAETDLDGLDMPLIRGRLIPKNGACIEPFYNVQILADGRVNACACRSVGEDLIIGDLRQDDLKTILSARNPAYTGLIERQQKGDFPQTCRGCSFYRSIYDRRIRNASPLGHMSLEQFHTFLSRE
MGSDKIHHHHHHMRNIPDQEEYFALLIEFDFEDFNDLPQNAGTSQNYVQGQLNPLLESALHQFIDFSLVAPPSAFKFRKRELLELIYYSGYTAIAKLNMNKSLSERVQTLISYHLSTELTAEFIAAQLFMSSSTLRRKLKSEGNSIQDIRNRVRLGHGLHLIQTTNNSIGNIAFECGYQSQSRFTEQFKNLFGITPRELRKTKMLT
MGSDKIHHHHHHMRNIVKRFGSLVANDHINFEVKRGEIHGLLGENGAGKTTLMNILYGIYQPDEGEIIFEGKKVRFKSPKDAISAGIGMVHQHFMLVPRMNVLQNIVLGYRTPSDPLINHRWVEERIERLSEKYGIDVALYEVIMNLSVGEEQRVEILKALFRDVKLLILDEPTAVLTPQEVDSLFYALKSMTKSGLTIIFITHKLKEALKVTDRITVLRRGRKVGTVITSETNERELTRMMVGRDIVLDITKPPSTPGREVLRVEDLWVRDERGNYAVKGVSFSIREGEIFGIAGVSGNGQKELEEAIAGLRKVERGRIILDGKDITAKGVAEREDIAYIPEDRIGVGLAPSLSVLENLMLKDFKKYKKRFSLNFEEMEKRAMSLVEEFSVKTPSLHSPAGTLSGGNIQRLILARELSRNPRLIIASQPTRGLDVAGIDYVRRRLIEAAMRGSAVLLISEDLDEIFQLSDRIGVMYEGEIRGIVDRKNANYEKIGYLMAGGLEVAA
MGSDKIHHHHHHMRNMQEKGVSEKEILEELKKYRSLDLKYEDGNIFGSMCSNVLPITRKIVDIFLETNLGDPGLFKGTKLLEEKAVALLGSLLNNKDAYGHIVSGGTEANLMALRCIKNIWREKRRKGLSKNEHPKIIVPITAHFSFEKGREMMDLEYIYAPIKEDYTIDEKFVKDAVEDYDVDGIIGIAGTTELGTIDNIEELSKIAKENNIYIHVDAAFGGLVIPFLDDKYKKKGVNYKFDFSLGVDSITIDPHKMGHCPIPSGGILFKDIGYKRYLDVDAPYLTETRQATILGTRVGFGGACTYAVLRYLGREGQRKIVNECMENTLYLYKKLKENNFKPVIEPILNIVAIEDEDYKEVCKKLRDRGIYVSVCNCVKALRIVVMPHIKREHIDNFIEILNSIKRD
MGSDKIHHHHHHMRNVKIDEVDRLDRDVVALGNDYAQGFILPPHQHRRAQLLYGATGLMYVTTQDGEWVVPPQHAVWIPPETVHAVRFAGVTTRSLYIEPDCVAAFIKHRRCEVISVSPLLRQLLLEAVDLPPLYDSPRDRALIQLMLLELAAMPVREFDIPLPQHPALLALCQAFLLNPSIHDPAARWARALFMSPSTFRRHFLKQLGLSFSAWRQRACVVSALAWLIAGKPVNEVALSLGYDNASSFATMFRRVTGQPPSFYHPA
